Substitutions are numbered along the chain they refer to.
T1: human LAG-3 (full length, on the cell surface) (human, UniProt P18627 23-525)
T1 construct: Full-length human LAG-3 expressed on cells; also called HEK293-hLAG-3; HEK293 cells transfected with LAG-3 gene
T1 sequence: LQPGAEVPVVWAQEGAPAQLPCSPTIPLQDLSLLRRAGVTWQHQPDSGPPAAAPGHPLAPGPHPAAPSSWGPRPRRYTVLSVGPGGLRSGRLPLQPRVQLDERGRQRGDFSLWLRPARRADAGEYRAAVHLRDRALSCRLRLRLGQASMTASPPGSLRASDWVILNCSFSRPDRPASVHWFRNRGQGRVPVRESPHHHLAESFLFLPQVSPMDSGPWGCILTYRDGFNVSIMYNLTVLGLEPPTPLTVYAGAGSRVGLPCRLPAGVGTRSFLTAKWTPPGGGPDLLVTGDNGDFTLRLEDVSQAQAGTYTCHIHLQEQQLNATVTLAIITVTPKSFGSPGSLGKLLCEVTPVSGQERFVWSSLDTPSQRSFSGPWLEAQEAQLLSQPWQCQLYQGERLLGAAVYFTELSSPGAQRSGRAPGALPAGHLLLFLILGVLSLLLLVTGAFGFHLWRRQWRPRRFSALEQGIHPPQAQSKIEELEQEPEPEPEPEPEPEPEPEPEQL

T2: human LAG-3 ECD (antigen protein of the affinity test) (human, UniProt P18627 23-450)
T2 sequence: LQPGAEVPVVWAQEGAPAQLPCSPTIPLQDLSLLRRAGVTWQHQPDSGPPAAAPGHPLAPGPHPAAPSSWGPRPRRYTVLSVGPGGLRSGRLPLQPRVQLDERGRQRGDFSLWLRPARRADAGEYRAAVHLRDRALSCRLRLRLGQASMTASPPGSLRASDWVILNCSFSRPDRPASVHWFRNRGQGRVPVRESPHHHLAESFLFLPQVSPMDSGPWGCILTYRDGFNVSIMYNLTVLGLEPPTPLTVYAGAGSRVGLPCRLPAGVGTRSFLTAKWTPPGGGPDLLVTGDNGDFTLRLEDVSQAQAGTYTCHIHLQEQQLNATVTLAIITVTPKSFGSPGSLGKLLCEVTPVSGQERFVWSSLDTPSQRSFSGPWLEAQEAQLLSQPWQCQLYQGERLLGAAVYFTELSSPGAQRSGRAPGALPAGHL

B1: 405B8H3 (mouse antibody purified from hybridoma) (antibody, V domains shown)
VH: QVQLQQSGAELVRPGASVTLSCKASGYTFTDYEMHWVKQTPVHGLEWIGATDPETGNSAYNQKFKGKAIMTADKSSSTAYMELRSLTSEDSAVYYCISTGWNDWGQGTSLTVSS
VL: DIKMTQSPSSMYASLGERVTITCKASQDINSYLSWFQQKPGKSPKTLIYRADRLLDGVPSRFSGSGSGQDYSLTISSLEYGDMGIYYCLQYDEFPYTFGGGTKLEIK
notes: also called mAb103-405B8H3; 405B81-13
B2: 105F1E10 (mouse antibody purified from hybridoma) (antibody, V domains shown)
VH: EVQLQQSGPELVKPGASVKMSCRASGYTFTDFKMHWMKQSHGKSLEWIGYIAPNNGGTAYNQKFRGKATLTVNESSNTAYMELRSLTSEDSAVYYCVDWDDVDYWGQGTTLTVSS
VL: B1 VL with P40S, D52N, L55V, G81E, D92V, Y96L, G100A, I106L
notes: also called mAb009-105F1E10
B3: 409B11E12 (mouse antibody purified from hybridoma) (antibody, V domains shown)
VH: B1 VH with P41T, G56S, N57Y, M70L, S98A
VL: B1 VL with I2L, D52N, G81E
notes: also called mAb104-409B11E12
B4: 409D4E10 (mouse antibody purified from hybridoma) (antibody, V domains shown)
VH: B1 VH with Y27N, G56D, S58T, M70L, A72T, S98T, T99S
VL: B1 VL with D52N, G81E, D92N
notes: also called mAb112-409D4E10
B5: 556F6B8 (mouse antibody purified from hybridoma) (antibody, V domains shown)
VH: RVQLKQSGPGLVQPSQSLSITCTVSGFSLIKYGVHWVRQSPGEGLEWLGVIWRGGITDYNAAFMSRLSITKDNSKSQVFFKMNSLQADDTAIYYCAKWDGPLAMDYWGQGTSVTVSS
VL: DIVMTQSHKFLSTSVGDRVSITCKASQDVGTTVAWYQQKPGQSPKLLIYWASTRHTGVPDRFTGSGSGTDFTLTISNVQSEDLADYFCQQYSSYPYTFGGGTKLEIK
notes: also called mAb123-556F6B8
B6: 105F1E10 mouse-human chimeric antibody (antibody, V domains shown)
VH: B2 VH
VL: B1 VL with P40S, D52N, L55V, G81E, D92V, Y96L, G100A, I106L
notes: also called mAb009-105F1E10
B7: 405B8H3 mouse-human chimeric antibody (antibody, V domains shown)
VH: B1 VH
VL: B1 VL
notes: also called mAb103-405B8H3
B8: 556F6B8 mouse-human chimeric antibody (antibody, V domains shown)
VH: B5 VH
VL: B5 VL
notes: also called mAb123-556F6B8; 556F8B8

The binders below were run against T1, human LAG-3 (full length, on the cell …) (assay: FACS, HEK293-hLAG-3; 0.013 nM).
Description: The pIRES plasmid with the monkey-derived full-length gene was transfected into the HEK293 cell line to construct a HEK293 stable cell line containing monkey LAG-3 (herein referred to as HEK293-cLAG-3 stable cell line). The HEK293-hLAG-3 stable cell line and HEK293-cLAG-3 stable cell line were expanded in a T-75 cell culture flask to a 90% confluence. The medium was aspirated, and the cells were washed with HBSS (Hanks' Balanced Salt Solution) 1-2 times, then treated with a enzyme-free cell dissociation fluid (Versene solution: Life technology) and the cells were collected. The cells were washed with HBSS buffer for 1-2 times. After counted, the cells were diluted with HBSS to 1-2×10⁶ cells per ml, added with 1% goat serum blocking solution, incubated on ice for 20-30 minutes, and then washed with HBSS for 2 times by centrifugation. The collected cells were suspended in the FACS buffer (HBSS+1% BSA) to 2×10⁶ cells/ml, added as 100 microliters per well to a 96-well FACS reaction plate, added with 100 microliters per well of the antibody sample to be tested, incubated on ice for 1-2 hours. The plate was washed twice with the FACS buffer by centrifugation, added with 100 microliters of fluorescent (Alexa 488)-labeled secondary antibodies per well, and incubated on ice for 0.5-1.0 hours. The plate was washed 2-3 times with FACS buffer by centrifugation, added with 100 μl fixative solution (4% Paraformaldehyde) per well to suspend the cells. 5-10 minutes later, it was washed 1-2 times with FACS buffer by centrifugation. The cells were suspended with 100 microliters of FACS buffer, FACS (FACSCalibur, BD) was used for detection and the results were analyzed.
B1 was tested, and the Mean fluorescence intensity was 5 MFI. Binder B2 has a Mean fluorescence intensity of 5 MFI. B3 gave a Mean fluorescence intensity of 2.9 MFI. With B4 the Mean fluorescence intensity was 3.3 MFI. B5 gave a Mean fluorescence intensity of 3.6 MFI.

The binders below were run against T2, human LAG-3 ECD (antigen protein of the …) (assay: SPR, CM5 chip, antibody captured by anti-human Fc IgG, antigen in flow, 1:1 fit).
Description: First, anti-human Fc IgG was immobilized on the surface of the CM5 chip to 6000-10000 RU by amino coupling method, with FC1 as the reference channel. The coupling process was as follows: a freshly prepared 1:1 mixture of 50 mM NHS and 200 mM EDC was activated for 7 minutes, then injected with 10-50 ug/ml anti-human Fc IgG diluted in 10 mM sodium acetate ph5.0 buffer. The remaining activated sites were blocked with 1M ethanolamine. Then, HBS-EP+ buffer was used to dilute the antibody to be tested to 5 ug/ml (adjustable according to the capture level) and the antibodies were captured on the chip at a flow rate of 10 ul/min to obtain a response value of about 100˜300 RU. Then the antigen protein was diluted to 100 nM (the highest concentration was tentatively 100 nM), and flew through the chip surface at a flow rate of 30 ul/min. If enough signal value was obtained, the antigen-protein was diluted by several concentration gradients, and flew through the chip surface respectively. At the end of each cycle, the chip surface was regenerated with 10 mM Glycine at pH 1.5. The kinetic rate constant needed to be subtracted from the blank control, and the data was fitted with the global fit analysis method 1:1 combination model. The dissociation equilibrium rate constant (KD) was calculated according to the following formula: KD=kd/ka.
Binder B6 has a Kd of 2.51 nM, a koff of 9.66e-05 s⁻¹ and a kon of 38500 M⁻¹ s⁻¹. Work on B7 yielded a Kd of 1.96 nM, a koff of 0.000158 s⁻¹ and a kon of 80400 M⁻¹ s⁻¹. With B8 the Kd was 3.77 nM, the koff was 0.000459 s⁻¹ and the kon was 122000 M⁻¹ s⁻¹.

Reference: patent publication US20210155689A1 (SHANGHAI PHARMAEXPLORER, published 2021)
